Measurements published in the nanobody polyreactivity screen of Harvey et al. (2022).

test: yeast display, Sf9 membrane polyspecificity reagent, FACS + sequencing; frameworks hold sequencing errors
Procedure, shortened: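 A nanobody's polyreactivity label depends on the gate it was sorted from. Yeast display cells were stained with 10% biotinylated, detergent-solubilized Sf9 membrane reagent for 1 hour at 4 °C, enriched on streptavidin microbeads and sorted by FACS. The low and high (top ~1%) gates were set on anti-HA fluorescence for expression and streptavidin fluorescence for reagent binding.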

Row | Sequence | polyreactivity (PSR sort gate)
1 | QVQHVESGGGLVQAGGSLRLSCASSGRIIGKYVMAWYRQAPGKERELVAGISWSAGSTYYADSVKGRFTISRDNAKNTVYLQMNSLKPEDTAVYYCAAGLEGVYDYWGQGTQVTVSS | low polyreactivity
2 | QVQHVESGGGLVQAGGSLRLSCDASGITFGHYTMGWYRQAHGKEREFVAAISWSGGSTYYADSVKGRFTISRDNAKNTVYLQMNSLKPEYTAVYYCNRVKPVIASYDSDYWGQGTQVTVSS | low polyreactivity
3 | QVQHVESGGGLVQAGGSLRLSGAASGSTFTYNTMGWYRQAPGKERELVAAITTYGGNTYYADSVKGRFTISRDNAKNTVYLQMNSLKPEDSAVYYCAARVIFGDFDYWGQGTQVTVSS | low polyreactivity
4 | QVQHVESGGGLVQAGGSLRLTCAASARIFRYYPMGRYRPAPGKERELVAGITTGGGSTYYADSVKGRFTISRENAKNTVYLQMNSLKPEDTAVFYCAARYYTTYYWGQGTQVTVSS | high polyreactivity
5 | QVQHVESGGGLVQAGGSLSLSCAASGRTILWNAMGWYRQAPGKERELVAAITSGGRTYYADSVKGRFTISRDNAKNTVYLQMNSLIPEDTAVYYCAASTVYWSTVNSQARFNYWGQGTQVTVSS | high polyreactivity
6 | QVQHVESGGGLVQAGGSLSLSCADSGITFYRYAMGCDRQAPAKERELVDRISQIGGSTYYADSVKGRFTISRDNAKNTVYLQMNSLKPEDTAVYYCNARVRYSTVTYLRKYYYWGQGTQVTVSS | high polyreactivity
7 | QVQHVESGGGLVQAGVSLRLSCAASGSIFVNNGMGWYRQAPGKERELVAAIRLSTGSTYYADSVKGRFTISRDNAKNTVYLQMNSLKPEDTAVYYCATRSYIWGNWGQGTQVTVSS | high polyreactivity
8 | QVQHVESGGGLVQARGSLRLSCAASGSIFWYNAMGWYRQAPGTVRELVAAINWSGGSTFYADSVKGRFTISRDNAKNTVYLQMNSLKPEDTAVDYCAADDWYTGYDYWGQGTQVTVSS | high polyreactivity
9 | QVQHVESGGGLVQAVGSLRLSCAASGNIFDRNAMGWYRQARGKERELVAAISRSGGRTYYADSVKGRFTISRDNAKNTVYLQMNSLKPEDTAVYYCNRRYRKYSSAKYDYWGQGTQVTVSS | high polyreactivity
10 | QVQHVESGGGLVQEGGSLRLSCAASGRIFRTNAMVWYRQAPGKERELVAAITRDGTTNYADSVKGRFTISRDNAKNTVYLQMNSLIPEDTAVYYCNARYRRSPIKFTYVRYVYEYDYWGQGTQVTVSS | low polyreactivity
11 | QVQHVESGGGSVQAGGRLRLSCAASGSTFIEYAMGWYRKAPGKERELVAGITTSSGRTSYADSVKGRFTISRDNAKNTVYLQMNSLKPEDTAVYYCAAKSYSDYDYWGQGTQVTVSS | low polyreactivity
12 | QVQHVESGGGVVQAVGSLRLSCAASGYIFRTNAMGWYRQARGKERELVAAITRSGGRTYYADSVKGRFTISRDNAKNTVYLQMNSLKPEDTAVYYCAAGGRKPVITGDYWGQGTQVTVSS | high polyreactivity
13 | QVQHVESGRGFVKAGCSLRLSCASSGSIFVKNAMGRYRQAPGKERELVARITYSGGSTYYADSVKGRFTISRDNAKNTVYLQMNSVKPEDNAGYYCARTRKIAGYYYWGQGTQVTESS | high polyreactivity
14 | QVQHVESRGCLLQAGGSLRLSCAASGITFRYYTMGWYRQAPGKESELVAAITWSGSSTYYAVSVKGRFTISRDNAKNTVYLQMNSLKPEHTAVYYCAKPYHQRSAKVDYWGQGTQVTVSS | low polyreactivity
15 | QVQHVESRGGIVQAGGSLRLSCAASGFTFAYYAMGRYRQAPGKERELVAAINYSGGSTYYADSVKGRFTISRDNAKNTVYLQMNSLKPEDTAVYYCATEYYRYDGSSYDYWGQGTQVTVSS | high polyreactivity
16 | QVQHVESRGGLVQAGGSLRLSCAASGFISRAYAMGWYRQAPGKERELVAAISVRVGSTYYADSVKGRFTISRDNAKNTVYLQMYSLKPEDTAVYYCAALRPWPRYDYWGQGTQVTVSS | high polyreactivity
